Laboratory results from article doi:10.1101/501098 (bioRxiv, 2018).

Molecular target: Histone H4 (Xenopus laevis), in the nucleosome (Xenopus laevis, UniProt P62799 2-103)
Assay: cryo-EM structure

binding result: binds
B1: Dot1L(2-416) (domain or fragment)
chain: GEKLELRLKSPVGAEPAVYPWPLPVYDKHHDAAHEIIETIRWVCEEIPDLKLAMENYVLIDYDTKSFESMQRLCDKYNRAIDSIHQLWKGTTQPMKLNTRPSTGLLRHILQQVYNHSVTDPEKLNNYEPFSPEVYGETSFDLVAQMIDEIKMTDDDLFVDLGSGVGQVVLQVAAATNCKHHYGVEKADIPAKYAETMDREFRKWMKWYGKKHAEYTLERGDFLSEEWRERIANTSVIFVNNFAFGPEVDHQLKERFANMKEGGRIVSSKPFAPLNFRINSRNLSDIGTIMRVVELSPLKGSVSWTGKPVSYYLHTIDRTILENYFSSLKNPKLREEQEAARRRQQRESKSNAATPTKGPEGKVAGPADAPMDSGAEEEKAGAATVKKPSPSKARKKKLNKKGRKMAGRKRGRPKK
